First the molecules themselves.
B1: Azoarcus group I ribozyme (parent)
chain: GUGCCUUGCGCCGGGAAACCACGCAAGGGAUGGUGUCAAAUUCGGCGAAACCUAAGCGCCCGCCCGGGCGUAUGGCAACGCCGAGCCAAGCUUCGGCGCCUGCGCCGAUGAAGGUGUAGAGACUAGACGGCACCCACCUAAGGCAAACGCUAUGGUGAAGGCAUAGUCCAGGGAGUGGCGAAAGUCACACAAACCGG

84 variants from the RNAGym collection of RNA variant scans (doi:10.1093/molbev/msab373) can be followed below.

In the series the parent is B1. In words: reverse-splicing fitness (ratio to wild type); higher = more active; in vitro selection; Mg2+ level not given. The procedure, abridged:
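An in vitro group I ribozyme library with randomized positions was T7-transcribed and gel-purified. In triplicate, 10 pmol RNA in EPPS pH 7.5 was reacted with 50 pmoles of a 30-nt RNA substrate for 1 h at 37 °C across several added MgCl2 levels (1–48 mM), then stopped with EDTA. Products were reverse transcribed from a substrate-complementary primer, PCR-amplified and sequenced (HiSeq 4000). Fitness is a variant's read proportion after selection over that before, normalised to wild type.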
Consider A111C A145G C150G C169G U176G, for which the reverse-splicing fitness amounted to 0.00555.
For A111C A145G C150G C169G U176A the value was 0.00954; for A111C A145G C150G C169G U176C, 0.0102.
Take A111G A120C A145C C150U U176A: the reverse-splicing fitness came out at 0.17.
The same measure for A111G A120C A145C C150U U176C: 0.158.
The same measure for A111G A120C A145C C150U U176G: 0.05; for A111C A145G C150A C169A: 0.0128; for A111C A145G C150A C169G: 0.0154.
Consider A111C A145G C150A C169U, for which the reverse-splicing fitness was 0.0232.
A111C A145C C169A U176G: the reverse-splicing fitness was determined as 0.007.
The same measure for A111C A145C C169A U176A: 0.0151; for A111C A145C C169A U176C: 0.0113; for A111C A145U C150G C169G U176A: 0.00777.
Regarding A111C A145U C150G C169G U176G, the reverse-splicing fitness was found to be 0.0067.
For the variant A111C A145U C150G C169G U176C, the reverse-splicing fitness worked out at 0.00594.
Turning to A111C A145U C150U U176A, the reverse-splicing fitness is 0.365.
Take A111C A145U C150U U176G: the reverse-splicing fitness turned out to be 0.166.
The same measure for A111C A145U C150U U176C: 0.36.
On to A111G A120C A145C C150A U176G, for which the reverse-splicing fitness was 0.0123.
In the case of A111G A120C A145C C150A U176C, the reverse-splicing fitness was determined as 0.0404.
For A111G A120C A145C C150A U176A the value was 0.0376; for A111C A145U C169G, 0.071.
Consider A111C A145U C169A, for which the reverse-splicing fitness was found to be 0.0348.
As for A111C A145U C169U, the reverse-splicing fitness was found to be 0.116.
Consider A111G A120C, for which the reverse-splicing fitness came out at 0.806.
For A111C C150G C169U U176A the value was 0.00732; for A111C C150G C169U U176C, 0.014.
A111C C150G C169U U176G: the reverse-splicing fitness amounted to 0.00651.
A111G A120C A145C C150G U176C: the reverse-splicing fitness came out at 0.0508.
For the variant A111G A120C A145C C150G U176G, the reverse-splicing fitness came out at 0.00421.
For A111G A120C A145C C150G U176A the value was 0.0148; for A111C A145U U176A, 0.424; for A111C A145U U176G, 0.276.
For A111C A145U U176C the value was 0.398; for A111C A145U C150A C169A U176C, 0.0151.
For A111C A145U C150A C169A U176A, the reverse-splicing fitness is 0.0138.
For A111C A145U C150A C169A U176G the value was 0.00755; for A111C A145C C150G C169G U176C, 0.00915.
As to A111C A145C C150G C169G U176G, the reverse-splicing fitness is 0.0057.
Consider A111C A145C C150G C169G U176A, for which the reverse-splicing fitness turned out to be 0.00768.
The same measure for A111G A120C A145C C169A: 0.0128.
For A111G A120C A145C C169U the value was 0.223.
Turning to A111G A120C A145C C169G, the reverse-splicing fitness is 0.0105.
As for A111G A120C A145C C150U C169G U176A, the reverse-splicing fitness worked out at 0.0186.
On to A111G A120C A145C C150U C169G U176C, for which the reverse-splicing fitness was determined as 0.00855.
Regarding A111G A120C A145C C150U C169G U176G, the reverse-splicing fitness is 0.0049.
On to A111C A145C C150U C169G U176A, for which the reverse-splicing fitness came to 0.0249.
With A111C A145C C150U C169G U176C, the reverse-splicing fitness worked out at 0.0197.
For A111C A145C C150U C169G U176G the value was 0.00689; for A111G A120C A145C, 0.653; for A111C A120U C169A U176G, 0.00232.
In the case of A111C A120U C169A U176C, the reverse-splicing fitness worked out at 0.00293.
The same measure for A111G A120C A145C C169U U176C: 0.061; for A111G A120C A145C C169U U176G: 0.00718.
The same measure for A111G A120C A145C C169U U176A: 0.0611.
The same measure for A111C A145C C150G C169A U176A: 0.00774; for A111C A145C C150G C169A U176C: 0.00833; for A111C A145C C150G C169A U176G: 0.00574.
For A111C C150G C169A U176A, the reverse-splicing fitness worked out at 0.00958.
Consider A111C C150G C169A U176G, for which the reverse-splicing fitness is 0.00532.
The same measure for A111C C150G C169A U176C: 0.0107; for A111C A145U C150A U176G: 0.0589.
For A111C A145U C150A U176A the value was 0.114; for A111C A145U C150A U176C, 0.166; for A111C A145C C150U C169U, 0.032.
As to A111C A145C C150U C169A, the reverse-splicing fitness was 0.0114.
The same measure for A111C A145C C150U C169G: 0.0204; for A111C A145C C150A C169U U176G: 0.00658; for A111C A145C C150A C169U U176C: 0.0102.
For A111C A145C C150A C169U U176A the value was 0.0151.
On to A111C A145C C150U U176G, for which the reverse-splicing fitness is 0.11.
For A111C A145C C150U U176C the value was 0.349; for A111C A145C C150U U176A, 0.219.
The same measure for A111G A120C A145C C169A U176G: 0.00335; for A111G A120C A145C C169A U176A: 0.0086.
For A111G A120C A145C C169A U176C the value was 0.00508; for A111C C150U C169U, 0.0632.
Take A111C C150U C169G: the reverse-splicing fitness stood at 0.0354.
The same measure for A111C C150U C169A: 0.0198; for A111C A145C C150G U176G: 0.0182; for A111C A145C C150G U176C: 0.13.
For A111C A145C C150G U176A the value was 0.0871.
On to A111C A120U C169G, for which the reverse-splicing fitness is 0.0632.
The same measure for A111C A120U C169U: 0.0792.
